Source: patent publication US20190194350A1 (UNIVERSITAT STUTTGART, published 2019)

How the values were obtained:
[1] = molecular target: T1, HER3-ECD protein (Homo sapiens (Human), UniProt P21860 20-643); assay: ELISA, immobilized HER3-ECD
T1 construct: also called receptor-ECD protein

[2] = molecular target: T2, HER3 on HER3-expressing tumor cells (human, UniProt P21860 20-1342); assay: flow cytometry, A431 cells
T2 construct: Endogenous HER3 of human tumor cell lines (MCF-7, FaDu, BT474, A431, NCI-N87, A549, SKBR-3, Colo205, HCT-116, A375 and melanoma lines); also called cellular receptor HER3; cell surface expressed HER3

[3] = molecular target: T2, HER3 on HER3-expressing tumor cells; assay: flow cytometry, A549 cells
[4] = molecular target: T2, HER3 on HER3-expressing tumor cells; assay: flow cytometry, FaDu cells
[5] = molecular target: T3, HER3 fragment aa 20-550 Fc fusion protein (DI-III plus part of DIV) (human, UniProt P21860 20-550); assay: ELISA, coated HER3-Fc fragments
T3 construct: not shown: IgG1 Fc part

[6] = molecular target: T4, HER3 fragment aa 359-587 Fc fusion protein (human, UniProt P21860 359-587); assay: ELISA, coated HER3-Fc fragments
T4 construct: not shown: IgG1 Fc part

[7] = molecular target: T5, HER3 fragment aa 329-550 Fc fusion protein (human, UniProt P21860 329-550); assay: ELISA, coated HER3-Fc fragments
T5 construct: not shown: IgG1 Fc part

[8] = molecular target: T2, HER3 on HER3-expressing tumor cells; assay: flow cytometry, BT474 cells
[9] = molecular target: T2, HER3 on HER3-expressing tumor cells; assay: flow cytometry, MCF-7 cells
[10] = molecular target: T2, HER3 on HER3-expressing tumor cells; assay: flow cytometry, NCI-N87 cells
[11] = molecular target: T2, HER3 on HER3-expressing tumor cells; assay: flow cytometry, FaDu cells; FaDu cells
[12] = molecular target: T2, HER3 on HER3-expressing tumor cells; assay: flow cytometry, MCF-7 cells; MCF-7 cells
[13] = molecular target: T2, HER3 on HER3-expressing tumor cells; assay: flow cytometry, SKBR-3 cells; SKBR-3 cells
[14] = molecular target: T2, HER3 on HER3-expressing tumor cells; assay: flow cytometry, FaDu cells (text; Table 3 prints 0.30)
[15] = molecular target: T6, HER3 DIV-Fc (aa 532-643) (human, UniProt P21860 532-643); assay: ELISA, coated HER3-Fc fragments at 10 µg/ml, anti-human Fab-HRP
T6 construct: not shown: IgG1 Fc part

[16] = molecular target: T7, HER3 fragment aa 359-643 Fc fusion protein (part of DIII and the entire DIV) (human, UniProt P21860 359-643); assay: as above
T7 construct: not shown: IgG1 Fc part

[17] = molecular target: T8, HER3 fragment aa 395-643 Fc fusion protein (part of DIII and the entire DIV) (human, UniProt P21860 395-643); assay: as above
T8 construct: not shown: IgG1 Fc part

[18] = molecular target: T9, HER3 fragment aa 458-643 Fc fusion protein (part of DIII and the entire DIV) (human, UniProt P21860 458-643); assay: as above
T9 construct: not shown: IgG1 Fc part

[19] = molecular target: T10, Fc fusion protein containing HER3 DI-DIII (aa 20-531; lacking DIV) (human, UniProt P21860 20-531); assay: as above
T10 construct: also called DI-DIII Fc; not shown: IgG1 Fc part

[20] = molecular target: T11, Fc fusion protein containing HER3 DI-DII and a short part of DIII (aa 20-358) (human, UniProt P21860 20-358); assay: as above
T11 construct: not shown: IgG1 Fc part

[21] = molecular target: T12, HER3-Fc fusion protein (Fc fusion protein of the extracellular domain of human HER3, limits not stated at the … (human, UniProt P21860 20-643)); assay: quartz crystal microbalance (Attana), IgG 3-43 on chip, HER3-Fc as analyte
T12 construct: also called wild-type HER3-Fc; human HER3-Fc fusion protein; not shown: human Fc region

[22] = molecular target: T13, HER3-His (HER3 aa 27-599 of the extracellular domain fused C-terminally with a hexahistidyl-tag) (human, UniProt P21860 27-599); assay: quartz crystal microbalance (Attana), IgG 3-43 on chip, HER3-his as analyte
T13 construct: also called soluble His-tagged HER3; His-tagged extracellular domain of HER3; not shown: C-terminal hexahistidyl-tag

[23] = molecular target: T12, HER3-Fc fusion protein (Fc fusion …); assay: quartz crystal microbalance (Attana), IgG 3-43 on chip, HER3-Fc as analyte (bivalent)
[24] = molecular target: T14, mouse HER3-Fc fusion protein (extracellular region of mouse HER3 fused to a human Fc region) (mouse, UniProt Q61526 20-641); assay: ELISA, coated mouse HER3-Fc, serial dilution of IgG 3-43, absorption at 450 nm
T14 construct: extracellular domain; not shown: human Fc region

[25] = molecular target: T2, HER3 on HER3-expressing tumor cells; assay: flow cytometry, FaDu cells; FaDu cells; Table 3 experiment, alongside scDb hu225x3-43-Fc
[26] = molecular target: T2, HER3 on HER3-expressing tumor cells; assay: flow cytometry on A431 cells, PE-labeled secondary antibody; the small table prints no unit, the axis is Concentration [nM] [panel A431]
[27] = molecular target: T2, HER3 on HER3-expressing tumor cells; assay: flow cytometry on A549 cells, PE-labeled secondary antibody; the small table prints no unit, the axis is Concentration [nM] [panel A549]
[28] = molecular target: T2, HER3 on HER3-expressing tumor cells; assay: flow cytometry on FaDu cells, PE-labeled secondary antibody; the small table prints no unit, the axis is Concentration [nM] [panel FADU]
[29] = molecular target: T2, HER3 on HER3-expressing tumor cells; assay: flow cytometry on MCF-7 cells, PE-labeled secondary antibody; the small table prints no unit, the axis is Concentration [nM] [panel MCF7]
[30] = molecular target: T2, HER3 on HER3-expressing tumor cells; assay: flow cytometry on BT474 cells, PE-labeled secondary antibody; the small table prints no unit, the axis is Concentration [nM] [panel BT474]
[31] = molecular target: T2, HER3 on HER3-expressing tumor cells; assay: flow cytometry on NCI-N87 cells, PE-labeled secondary antibody; the small table prints no unit, the axis is Concentration [nM] [panel NCI-N87]

T14 sequence (Q61526 20-641): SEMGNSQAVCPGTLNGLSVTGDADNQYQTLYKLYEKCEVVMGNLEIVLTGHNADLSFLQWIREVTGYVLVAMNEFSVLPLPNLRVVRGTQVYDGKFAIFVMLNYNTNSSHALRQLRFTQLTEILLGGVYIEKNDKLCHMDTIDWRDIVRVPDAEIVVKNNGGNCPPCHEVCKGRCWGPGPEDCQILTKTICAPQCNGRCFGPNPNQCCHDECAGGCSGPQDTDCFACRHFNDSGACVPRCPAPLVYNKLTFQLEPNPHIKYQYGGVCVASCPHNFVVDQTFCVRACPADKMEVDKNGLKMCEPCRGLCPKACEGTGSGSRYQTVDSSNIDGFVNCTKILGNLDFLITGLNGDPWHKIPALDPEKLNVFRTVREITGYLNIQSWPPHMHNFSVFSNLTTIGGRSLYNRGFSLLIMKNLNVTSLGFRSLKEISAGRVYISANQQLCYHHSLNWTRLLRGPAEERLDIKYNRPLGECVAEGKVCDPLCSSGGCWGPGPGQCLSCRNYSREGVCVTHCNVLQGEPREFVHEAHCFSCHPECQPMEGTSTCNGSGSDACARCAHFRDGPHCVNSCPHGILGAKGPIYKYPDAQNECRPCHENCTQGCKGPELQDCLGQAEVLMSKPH

B1: IgG 3-43 (antibody)
heavy: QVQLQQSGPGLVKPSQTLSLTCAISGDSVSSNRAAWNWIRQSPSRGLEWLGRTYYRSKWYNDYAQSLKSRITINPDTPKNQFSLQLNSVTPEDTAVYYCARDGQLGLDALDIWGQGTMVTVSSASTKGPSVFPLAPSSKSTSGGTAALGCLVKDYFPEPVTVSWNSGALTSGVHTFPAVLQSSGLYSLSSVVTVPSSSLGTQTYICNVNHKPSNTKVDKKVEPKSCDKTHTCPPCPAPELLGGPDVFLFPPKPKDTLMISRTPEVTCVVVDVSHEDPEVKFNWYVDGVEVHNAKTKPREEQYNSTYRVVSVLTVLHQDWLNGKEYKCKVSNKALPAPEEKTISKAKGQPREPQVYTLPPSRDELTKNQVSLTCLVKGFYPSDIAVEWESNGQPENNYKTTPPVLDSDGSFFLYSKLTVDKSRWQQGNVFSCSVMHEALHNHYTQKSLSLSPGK
light: QAGLTQPPAVSVAPGQTASITCGRDNIGSRSVHWYQQKPGQAPVLVVYDDSDRPAGIPERFSGSNYENTATLTISRVEAGDEADYYCQVWGITSDHVVFGGGTKLTVLCGQPKAAPSVTLFPPSSEELQANKATLVCLISDFYPGAVTVAWKADSSPVKAGVETTTPSKQSNNKYAASSYLSLTPEQWKSHRSYSCQVTHEGSTVEKTVAPTECS
notes: also called 3-43-IgG; 3-43 IgG
- EC50 [1]: 330 pM
- EC50 [2]: 45 pM
- EC50 [3]: 53 pM
- EC50 [4]: 30 pM
- binding result [5]: no binding
- binding result [6]: no binding
- binding result [7]: no binding
- EC50 [8]: 74 pM
- EC50 [9]: 37 pM
- EC50 [10]: 27 pM
- EC50 [11]: 3 pM
- EC50 [12]: 21 pM
- EC50 [13]: 22 pM
- EC50 [14]: 6 pM
- binding result [15]: no binding
- binding result [16]: no binding
- binding result [17]: no binding
- binding result [18]: no binding
- binding result [19]: no binding
- binding result [20]: no binding
- koff [21]: 0.000103 s⁻¹
- kon [21]: 468000 M⁻¹ s⁻¹
- koff [22]: 0.00696 s⁻¹
- kon [22]: 622000 M⁻¹ s⁻¹
- Kd [23]: 220 pM
- EC50 (read off the curve) [24]: ~3000 pM
- EC50 [25]: 300 pM
- EC50 [26]: 44.5 pM
- EC50 [27]: 53.5 pM
- EC50 [28]: 30.2 pM
- EC50 [29]: 36.5 pM
- EC50 [30]: 74.3 pM
- EC50 [31]: 26.6 pM
